Data from patent US20250326812A1 (CUGENE, published 2025).
Where no end group is shown, it is not given here.

B1: Blocking peptide L03 (cyclized IL-2Rβ loop 2) (peptide)
peptide: CEISQASHYFERHLC
modifications: also: biotinylated, position not given here, cyclized, mode and sites not given here
notes: Synthetic peptide
B2: L02 (peptide)
peptide: EISQASHYFERHL
modifications: also: biotinylated, site not given here
notes: also called IL-2Rβ loop 2 peptide (linear)

Target: T1, P-0153, an IL-15/IL-15RαSushi+ Fc fusion protein
T1 construct: Heterodimeric knob/hole Fc fusion; It served as the plate-coated source of IL-15 in the peptide ELISA
T1 sequence (chain, as listed by the source, chain 1 of 2): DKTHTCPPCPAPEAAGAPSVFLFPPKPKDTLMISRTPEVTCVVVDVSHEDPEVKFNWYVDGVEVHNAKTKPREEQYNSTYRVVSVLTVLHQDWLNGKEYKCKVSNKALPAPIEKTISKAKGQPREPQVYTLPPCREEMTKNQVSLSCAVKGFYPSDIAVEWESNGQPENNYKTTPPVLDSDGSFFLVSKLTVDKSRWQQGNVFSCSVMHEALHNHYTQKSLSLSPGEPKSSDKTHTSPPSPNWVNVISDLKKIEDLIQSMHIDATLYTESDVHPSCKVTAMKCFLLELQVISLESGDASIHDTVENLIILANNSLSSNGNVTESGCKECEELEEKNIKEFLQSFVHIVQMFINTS
T1 sequence (chain, as listed by the source, chain 2 of 2): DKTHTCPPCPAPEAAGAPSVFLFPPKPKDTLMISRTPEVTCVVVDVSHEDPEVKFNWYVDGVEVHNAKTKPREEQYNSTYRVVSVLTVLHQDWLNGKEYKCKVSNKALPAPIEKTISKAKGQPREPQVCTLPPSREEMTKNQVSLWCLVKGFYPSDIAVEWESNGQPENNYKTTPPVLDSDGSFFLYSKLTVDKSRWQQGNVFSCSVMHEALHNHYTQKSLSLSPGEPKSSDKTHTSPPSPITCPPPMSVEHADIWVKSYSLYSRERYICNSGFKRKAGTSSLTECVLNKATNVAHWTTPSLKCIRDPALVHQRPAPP
Assay: ELISA; P-0153 coated on the plate at 1 ug/well, biotinylated peptide in 3-fold dilutions from 100 uM, streptavidin-HRP, TMB, OD450
Method: The five peptides, L01 to L05 (SEQ ID NO: 97-101) in Table 13 were synthesized and assessed for their binding to IL-15 in ELISA format. […] Streptavidin-HRP complex at the manufacturer's recommended concentration was added and signal was developed by TMB substrate.

| Binder | EC50 (read off the curve) [µM] | binding result |
| --- | --- | --- |
| B1 | ~8 |  |
| LGAPDSQKLTTVDIVGGGGGGGGEISQASHYFERHL (also: biotinylated, site not given here) [L04] |  | binds |
| B2 |  | binds |
